Measured values: patent US20090226432A1 (MICROMET, published 2009)

T1: soluble human CEA antigen (human, UniProt P06731 35-685, limits assumed, biotinylated with EZ-Link Sulfo NHS-LC-LC-Biotin in the ELISA (not in the cytotoxicity competition assays))
T1 construct: also called soluble CEA; soluble biotinylated human CEA (Abcam)
T1 sequence: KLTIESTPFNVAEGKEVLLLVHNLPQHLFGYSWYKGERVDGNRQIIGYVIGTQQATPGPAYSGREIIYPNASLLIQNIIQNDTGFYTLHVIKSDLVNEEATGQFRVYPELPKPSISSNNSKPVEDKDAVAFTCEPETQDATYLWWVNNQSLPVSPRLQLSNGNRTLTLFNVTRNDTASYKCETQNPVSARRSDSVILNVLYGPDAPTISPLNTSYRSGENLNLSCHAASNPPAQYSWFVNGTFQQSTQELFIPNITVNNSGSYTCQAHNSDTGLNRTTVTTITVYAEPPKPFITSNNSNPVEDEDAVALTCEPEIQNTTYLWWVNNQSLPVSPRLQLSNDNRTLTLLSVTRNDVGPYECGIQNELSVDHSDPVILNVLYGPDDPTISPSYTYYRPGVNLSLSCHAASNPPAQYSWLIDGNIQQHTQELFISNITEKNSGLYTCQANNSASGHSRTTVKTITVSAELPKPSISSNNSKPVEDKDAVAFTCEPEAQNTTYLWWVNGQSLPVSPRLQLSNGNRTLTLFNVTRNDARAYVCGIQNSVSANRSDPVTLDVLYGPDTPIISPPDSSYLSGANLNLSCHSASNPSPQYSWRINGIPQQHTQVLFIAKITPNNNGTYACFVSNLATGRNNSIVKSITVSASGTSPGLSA

B1: CEA I VLVH x SEQ ID NO. 77 VHVL (bispecific antibody)
chain: DIELTQSPAILSASPGEKVTMTCRASSSVTYIHWYQQKPGSSPKSWIYATSNLASGVPARFSGSGSGTSYSLTISRVEAEDAATYYCQHWSSKPPTFGGGTKLEIKGGGGSGGGGSGGGGSQVQLQESGGGLVQPGGSLRLSCATSGFTFTDYYMNWVRQPPGKALEWLGFIGNKANGYTTEYSASVKGRFTISRDKSQSILYLQMNTLRAEDSATYYCTRDRGLRFYFDYWGQGTTVTVSSGGGGSDVQLVQSGAEVKKPGASVKVSCKASGYTFTRYTMHWVRQAPGQGLEWIGYINPSRGYTNYADSVKGRFTITTDKSTSTAYMELSSLRSEDTATYYCARYYDDHYCLDYWGQGTTVTVSSGEGTSTGSGGSGGSGGADDIVLTQSPATLSLSPGERATLSCRASQSVSYMNWYQQKPGKAPKRWIYDTSKVASGVPARFSGSGSGTDYSLTINSLEAEDAATYYCQQWSSNPLTFGGGTKVEIK
notes: Bispecific single chain antibody; anti-CEA part from murine mAb A5B7; also called CEA I-LH
B2: CEA III VLVH x SEQ ID NO. 77 VHVL (bispecific antibody)
chain: ENVLTQSPAIMSASPGEKVTITCSASSSVSYMHWFQQKPGTSPKLWIYSTSNLASGVPARFSGSGSGTSYSLTISRMEAEDAATYYCQQRSSYPLTFGAGTKLELKGGGGSGGGGSGGGGSQVKLQQSGAELVRSGTSVKLSCTASGFNIKDSYMHWLRQGPEQGLEWIGWIDPENGDTEYAPKFQGKATFTTDTSSNTAYLQLSSLTSEDTAVYYCNEGTPTGPYYFDYWGQGTTVTVSSGGGGSDVQLVQSGAEVKKPGASVKVSCKASGYTFTRYTMHWVRQAPGQGLEWIGYINPSRGYTNYADSVKGRFTITTDKSTSTAYMELSSLRSEDTATYYCARYYDDHYCLDYWGQGTTVTVSSGEGTSTGSGGSGGSGGADDIVLTQSPATLSLSPGERATLSCRASQSVSYMNWYQQKPGKAPKRWIYDTSKVASGVPARFSGSGSGTDYSLTINSLEAEDAATYYCQQWSSNPLTFGGGTKVEIK
notes: Bispecific single chain antibody; anti-CEA part from mAb MFE-23; also called CEA III-LH
B3: SEQ ID NO. 77 VHVL x CEA I VHVL (bispecific antibody)
chain: DVQLVQSGAEVKKPGASVKVSCKASGYTFTRYTMHWVRQAPGQGLEWIGYINPSRGYTNYADSVKGRFTITTDKSTSTAYMELSSLRSEDTATYYCARYYDDHYCLDYWGQGTTVTVSSGEGTSTGSGGSGGSGGADDIVLTQSPATLSLSPGERATLSCRASQSVSYMNWYQQKPGKAPKRWIYDTSKVASGVPARFSGSGSGTDYSLTINSLEAEDAATYYCQQWSSNPLTFGGGTKVEIKSGGGGSQVQLQESGGGLVQPGGSLRLSCATSGFTFTDYYMNWVRQPPGKALEWLGFIGNKANGYTTEYSASVKGRFTISRDKSQSILYLQMNTLRAEDSATYYCTRDRGLRFYFDYWGQGTTVTVSSGGGGSGGGGSGGGGSDIELTQSPAILSASPGEKVTMTCRASSSVTYIHWYQQKPGSSPKSWIYATSNLASGVPARFSGSGSGTSYSLTISRVEAEDAATYYCQHWSSKPPTFGGGTKLEIK
notes: Bispecific single chain antibody, anti-CD3 part N-terminal, anti-CEA part from mAb A5B7
B4: CEA I VHVL x SEQ ID NO. 77 VHVL (bispecific antibody)
chain: QVQLQESGGGLVQPGGSLRLSCATSGFTFTDYYMNWVRQPPGKALEWLGFIGNKANGYTTEYSASVKGRFTISRDKSQSILYLQMNTLRAEDSATYYCTRDRGLRFYFDYWGQGTTVTVSSGGGGSGGGGSGGGGSDIELTQSPAILSASPGEKVTMTCRASSSVTYIHWYQQKPGSSPKSWIYATSNLASGVPARFSGSGSGTSYSLTISRVEAEDAATYYCQHWSSKPPTFGGGTKLEIKSGGGGSDVQLVQSGAEVKKPGASVKVSCKASGYTFTRYTMHWVRQAPGQGLEWIGYINPSRGYTNYADSVKGRFTITTDKSTSTAYMELSSLRSEDTATYYCARYYDDHYCLDYWGQGTTVTVSSGEGTSTGSGGSGGSGGADDIVLTQSPATLSLSPGERATLSCRASQSVSYMNWYQQKPGKAPKRWIYDTSKVASGVPARFSGSGSGTDYSLTINSLEAEDAATYYCQQWSSNPLTFGGGTKVEIK
notes: Bispecific single chain antibody; also called CEA I-HL
B5: CEA II VHVL x SEQ ID NO. 77 VHVL (bispecific antibody)
chain: EVQLQQSGAELVEPGASVKLSCTASGFNIKDTYMHWVKQRPEQGLEWIGRIDPANGNSKYVPKFQGKATITADTSSNTAYLQLTSLTSEDTAVYYCAPFGYYVSDYAMAYWGQGTSVTVSSGGGGSGGGGSGGGGSDIVLTQSPASLAVSLGQRATMSCRAGESVDIFGVGFLHWYQQKPGQPPKLLIYRASNLESGIPVRFSGTGSRTDFTLIIDPVEADDVATYYCQQTNEDPYTFGGGTKLEIKSGGGGSDVQLVQSGAEVKKPGASVKVSCKASGYTFTRYTMHWVRQAPGQGLEWIGYINPSRGYTNYADSVKGRFTITTDKSTSTAYMELSSLRSEDTATYYCARYYDDHYCLDYWGQGTTVTVSSGEGTSTGSGGSGGSGGADDIVLTQSPATLSLSPGERATLSCRASQSVSYMNWYQQKPGKAPKRWIYDTSKVASGVPARFSGSGSGTDYSLTINSLEAEDAATYYCQQWSSNPLTFGGGTKVEIK
notes: Bispecific single chain antibody; anti-CEA part from mAb T84.66; also called CEA II HL
B6: CEA III VHVL x SEQ ID NO. 77 VHVL (bispecific antibody)
chain: QVKLQQSGAELVRSGTSVKLSCTASGFNIKDSYMHWLRQGPEQGLEWIGWIDPENGDTEYAPKFQGKATFTTDTSSNTAYLQLSSLTSEDTAVYYCNEGTPTGPYYFDYWGQGTTVTVSSGGGGSGGGGSGGGGSENVLTQSPAIMSASPGEKVTITCSASSSVSYMHWFQQKPGTSPKLWIYSTSNLASGVPARFSGSGSGTSYSLTISRMEAEDAATYYCQQRSSYPLTFGAGTKLELKSGGGGSDVQLVQSGAEVKKPGASVKVSCKASGYTFTRYTMHWVRQAPGQGLEWIGYINPSRGYTNYADSVKGRFTITTDKSTSTAYMELSSLRSEDTATYYCARYYDDHYCLDYWGQGTTVTVSSGEGTSTGSGGSGGSGGADDIVLTQSPATLSLSPGERATLSCRASQSVSYMNWYQQKPGKAPKRWIYDTSKVASGVPARFSGSGSGTDYSLTINSLEAEDAATYYCQQWSSNPLTFGGGTKVEIK
notes: Bispecific single chain antibody; anti-CEA part from mAb MFE-23; also called CEA III-HL
B7: SEQ ID NO. 77 VHVL x CEA I VLVH (bispecific antibody)
chain: DVQLVQSGAEVKKPGASVKVSCKASGYTFTRYTMHWVRQAPGQGLEWIGYINPSRGYTNYADSVKGRFTITTDKSTSTAYMELSSLRSEDTATYYCARYYDDHYCLDYWGQGTTVTVSSGEGTSTGSGGSGGSGGADDIVLTQSPATLSLSPGERATLSCRASQSVSYMNWYQQKPGKAPKRWIYDTSKVASGVPARFSGSGSGTDYSLTINSLEAEDAATYYCQQWSSNPLTFGGGTKVEIKSGGGGSDIELTQSPAILSASPGEKVTMTCRASSSVTYIHWYQQKPGSSPKSWIYATSNLASGVPARFSGSGSGTSYSLTISRVEAEDAATYYCQHWSSKPPTFGGGTKLEIKGGGGSGGGGSGGGGSQVQLQESGGGLVQPGGSLRLSCATSGFTFTDYYMNWVRQPPGKALEWLGFIGNKANGYTTEYSASVKGRFTISRDKSQSILYLQMNTLRAEDSATYYCTRDRGLRFYFDYWGQGTTVTVSS
notes: as for B3

Key:
[1] = molecular target: T1, soluble human CEA antigen; assay: refers to the ELISA of FIG. 2
[2] = molecular target: T1, soluble human CEA antigen; assay: refers to Examples 2 and 3 (flow cytometry, ELISA)
[3] = molecular target: T1, soluble human CEA antigen; assay: direct ELISA, biotinylated soluble CEA on streptavidin plate; 0.5 and 5 ug/ml
Method: The direct ELISA to determine the specificity of CEA×CD3 bispecific single chain antibody against soluble human CEA was carried out according to standard procedures. Briefly, 50 μl/well PBS or soluble biotinylated human CEA (Abcam; 5 μg/ml in 1×PBS) were immobilized on a 96-well streptavidin-coated ELISA plate (Nunc) by incubating at 4° C. for about 16 hours. After washing with 200 μl water per well 200 μl of blocking solution (PBS/3% BSA) was added. After blocking for 1 h at room temperature the blocking solution was removed. All subsequent washing (200 μl/well of 1×PBS/0.05% (v/v) Tween20) and incubation steps were performed at room temperature. After washing once, the CEAI VHVL×SEQ ID NO.77 VHVL (SEQ ID NO. 8; anti-CEA part derived from mAb A5B7), CEAII VHVL×SEQ ID NO.77 VHVL (SEQ ID NO. 10; anti-CEA part derived from mAb T84.66), and CEAIII VHVL×SEQ ID NO.77 VHVL (SEQ ID NO. 14; anti-CEA part derived from mAb MFE-23) bispecific single chain antibodies, and mouse monoclonal antibody CEA/CD66 Ab-3 (Col-1; Dunn) were incubated in different concentrations (0.5 μg/ml and 5 μg/ml in 1×PBS; 50 μl/well) for 1 hour. 1×PBS (50 μl/well) was added as a control for unspecific binding. 3 washing steps were followed by adding 50 μl/well Penta-His IgG (Qiagen; 2 μg/ml in 1×PBS) for detection of the His-tagged bispecific single chain antibodies. Subsequently, the wells were washed 3 times and incubated with 50 μl of a horseradish peroxidase-labelled goat anti-mouse Fc gamma-specific antibody (Jackson ImmuneResearch; 1:1000 in 1×PBS) for 1 hour. After washing 3 times the ELISA was developed by adding ABTS substrate solution (Roche) and the absorbance was measured at a wavelength of 405 nm.

Binder | binding result [1] | binding result [3] | further results
B1 | binds | – | –
B2 | – | – | binding result [2]: binds
B3 | binds | – | –
B4 | – | binds | –
B5 | – | binds | –
B6 | – | binds | –
B7 | binds | – | –
